# From PMC12363196, “High level of carbapenem resistance and transmission ability of blaIMP-26 in multidrug-resistant Enterobacter xiangfangensis isolates from China” (mSystems, 2025)
# Tests used:
# Experiment in all cases: purified protein
# Conditions in all cases: 50 mM HEPES pH 7.5, 250 mM NaCl, 100 µM ZnCl2, 37 °C, BSA 20 µg/mL in dilution buffer
# [1] = system: C[C@@H](O)[C@H]1C(=O)N2C(C(=O)O)=C(SCCN=CN)C[C@H]12
# [2] = system: C[C@@H](O)[C@H]1C(=O)N2C(C(=O)O)=C(S[C@@H]3CN[C@H](C(=O)N(C)C)C3)[C@H](C)[C@H]12
# [3] = system: CO/N=C(\C(=O)N[C@@H]1C(=O)N2C(C(=O)O)=C(COC(C)=O)CS[C@H]12)c1csc(N)n1
# [4] = system: CC(C)(O/N=C(\C(=O)N[C@@H]1C(=O)N2C(C(=O)[O-])=C(C[n+]3ccccc3)CS[C@H]12)c1csc(N)n1)C(=O)O
# [5] = system: CO/N=C(\C(=O)N[C@@H]1C(=O)N2C(C(=O)[O-])=C(C[N+]3(C)CCCC3)CS[C@H]12)c1csc(N)n1
substance,measurement,setting,value
IMP-26 (Pseudomonas aeruginosa),Km,[1],932.6 µM
same,kcat,[1],159.51 s⁻¹
same,kcat/Km,[1],171000 M⁻¹ s⁻¹
same,Km,[2],218.8 µM
same,kcat,[2],75.08 s⁻¹
same,kcat/Km,[2],343000 M⁻¹ s⁻¹
same,Km,[3],192.1 µM
same,kcat,[3],31.92 s⁻¹
same,kcat/Km,[3],166000 M⁻¹ s⁻¹
same,Km,[4],677.2 µM
same,kcat,[4],38.86 s⁻¹
same,kcat/Km,[4],57000 M⁻¹ s⁻¹
same,Km,[5],497.1 µM
same,kcat,[5],37.58 s⁻¹
same,kcat/Km,[5],76000 M⁻¹ s⁻¹
